The target in this data set is T1, NRSF/REST (lambda-HZ4 partial) (Homo sapiens) (UniProt Q13127).
T1 sequence: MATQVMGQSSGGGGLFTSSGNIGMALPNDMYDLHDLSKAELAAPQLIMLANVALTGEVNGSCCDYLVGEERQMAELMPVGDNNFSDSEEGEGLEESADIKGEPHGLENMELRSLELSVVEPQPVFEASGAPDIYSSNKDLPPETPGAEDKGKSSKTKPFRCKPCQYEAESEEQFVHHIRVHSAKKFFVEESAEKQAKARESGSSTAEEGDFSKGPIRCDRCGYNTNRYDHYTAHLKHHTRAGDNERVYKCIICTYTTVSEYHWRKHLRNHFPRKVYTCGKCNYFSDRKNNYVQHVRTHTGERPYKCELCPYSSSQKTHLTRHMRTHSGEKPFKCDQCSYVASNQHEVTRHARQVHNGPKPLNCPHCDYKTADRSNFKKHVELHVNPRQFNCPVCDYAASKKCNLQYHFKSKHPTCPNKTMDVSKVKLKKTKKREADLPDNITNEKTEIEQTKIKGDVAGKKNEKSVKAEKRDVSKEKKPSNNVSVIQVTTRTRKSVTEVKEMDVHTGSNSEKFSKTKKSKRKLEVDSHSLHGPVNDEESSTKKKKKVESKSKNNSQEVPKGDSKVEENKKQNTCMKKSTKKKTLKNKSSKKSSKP
Kind of data set: cell_activity. As to conditions: pCAT3 reporter, maximum pCMV-HZ4, PC12 cells.

With “pCAT3 SCG10 proximal promoter without NRSE”, the activity (fold repression) was determined as 1.5.

The values are drawn from patent US5935811.
